Results on 1 protein are retold here after paper PMC7898959, “Identification of an amino-terminus determinant critical for ryanodine receptor/Ca^2+ release channel function” (Cardiovascular Research, 2020).

The data set deals with the molecule itself. In words: cross-linking; HEK293 cell homogenate (20 μg) with glutaraldehyde (0.0025% or 260 μmol/L) for 0 min to 1 h under reducing (10 mM DTT) conditions; SDS-PAGE and blot with Ab^cMyc; tetramer formation T = ODT/(ODT + ODM) × 100 by densitometry.

B1: NT^Δβ23–β24 (RyR2 residues 1–906, residues 399–401 removed) (domain or fragment, human, UniProt Q92736 1-906, looked up)
chain: MADGGEGEDEIQFLRTDDEVVLQCTATIHKEQQKLCLAAEGFGNRLCFLESTSNSKNVPPDLSICTFVLEQSLSVRALQEMLANTVEKSEGQVDVEKWKFMMKTAQGGGHRTLLYGHAILLRHSYSGMYLCCLSTSRSSTDKLAFDVGLQEDTTGEACWWTIHPASKQRSEGEKVRVGDDLILVSVSSERYLHLSYGNGSLHVDAAFQQTLWSVAPISSGSEAAQGYLIGGDVLRLLHGHMDECLTVPSGEHGEEQRRTVHYEGGAVSVHARSLWRLETLRVAWSGSHIRWGQPFRLRHVTTGKYLSLMEDKNLLLMDKEKADVKSTAFTFRSSKEKLDVGVRKEVDGMGTSEIKYGDSVCYIQHVDTGLWLTYQSVDVKSVRMGSIQRKAIMHHEGHGISLSRSQHEESRTARVIRSTVFLFNRFIRGLDALSKKAKASTVDLPIESVSLSLQDLIGYFHPPDEHLEHEDKQNRLRALKNRQNLFQEEGMINLVLECIDRLHVYSSAAHFADVAGREAGESWKSILNSLYELLAALIRGNRKNCAQFSGSLDWLISRLERLEASSGILEVLHCVLVESPEALNIIKEGHIKSIISLLDKHGRNHKVLDVLCSLCVCHGVAVRSNQHLICDNLLPGRDLLLQTRLVNHVSSMRPNIFLGVSEGSAQYKKWYYELMVDHTEPFVTAEATHLRVGWASTEGYSPYPGGGEEWGGNGVGDDLFSYGFDGLHLWSGCIARTVSSPNQHLLRTDDVISCCLDLSAPSISFRINGQPVQGMFENFNIDGLFFPVVSFSAGIKVRFLLGGRHGEFKFLPPPGYAPCYEAVLPKEKLKVEHSREYKQERTYTRDLLGPTVSLTQAAFTPIPVDTSQIVLPPHLERIREKLAENIHELWVMNKIELGWQYGP
notes: cardiac ryanodine receptor (RyR2), N-terminus, residues 1-906, with residues 399-401 removed; source: HEK293, transiently transfected, in cell homogenate; not shown: cMyc, N-terminal, kept
The term stoichiometry N denotes the number of molecules, sites or subunits per partner or assembly. In the case of B1, the “stoichiometry N” value turned out to be 4.
